The text below walks through data of patent US20120178668A1.

What all share (experiment): cell-based or functional assay
The target in experiment [1] is T1, NPR-A of HeLa cells, P16066.
T1 chain: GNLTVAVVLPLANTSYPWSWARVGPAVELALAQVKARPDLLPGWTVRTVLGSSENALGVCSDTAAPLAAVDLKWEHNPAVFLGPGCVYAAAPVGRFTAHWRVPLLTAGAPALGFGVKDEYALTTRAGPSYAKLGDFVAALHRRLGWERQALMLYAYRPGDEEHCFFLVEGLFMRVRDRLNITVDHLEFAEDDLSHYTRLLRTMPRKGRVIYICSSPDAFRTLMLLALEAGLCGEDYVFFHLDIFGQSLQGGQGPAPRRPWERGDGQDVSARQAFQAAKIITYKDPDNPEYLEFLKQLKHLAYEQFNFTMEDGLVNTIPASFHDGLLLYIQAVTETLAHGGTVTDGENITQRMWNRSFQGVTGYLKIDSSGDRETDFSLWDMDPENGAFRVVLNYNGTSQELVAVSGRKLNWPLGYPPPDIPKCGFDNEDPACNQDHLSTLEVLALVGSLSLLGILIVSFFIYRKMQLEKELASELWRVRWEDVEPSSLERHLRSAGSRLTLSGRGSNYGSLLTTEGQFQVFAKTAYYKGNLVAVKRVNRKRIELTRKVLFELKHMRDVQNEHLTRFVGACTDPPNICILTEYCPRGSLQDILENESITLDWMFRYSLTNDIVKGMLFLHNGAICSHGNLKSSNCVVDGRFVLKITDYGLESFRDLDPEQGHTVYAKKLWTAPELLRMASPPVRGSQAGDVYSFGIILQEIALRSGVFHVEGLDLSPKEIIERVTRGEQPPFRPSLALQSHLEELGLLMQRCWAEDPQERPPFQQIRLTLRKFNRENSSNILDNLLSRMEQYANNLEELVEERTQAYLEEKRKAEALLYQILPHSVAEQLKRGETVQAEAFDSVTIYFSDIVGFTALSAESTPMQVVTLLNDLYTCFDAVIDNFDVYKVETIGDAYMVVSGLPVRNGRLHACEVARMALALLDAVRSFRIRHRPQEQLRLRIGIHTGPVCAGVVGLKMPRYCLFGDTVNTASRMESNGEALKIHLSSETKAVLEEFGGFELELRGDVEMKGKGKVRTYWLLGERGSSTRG

In another experiment the target is T2, NPR-C (rat), P41740.
T2 chain: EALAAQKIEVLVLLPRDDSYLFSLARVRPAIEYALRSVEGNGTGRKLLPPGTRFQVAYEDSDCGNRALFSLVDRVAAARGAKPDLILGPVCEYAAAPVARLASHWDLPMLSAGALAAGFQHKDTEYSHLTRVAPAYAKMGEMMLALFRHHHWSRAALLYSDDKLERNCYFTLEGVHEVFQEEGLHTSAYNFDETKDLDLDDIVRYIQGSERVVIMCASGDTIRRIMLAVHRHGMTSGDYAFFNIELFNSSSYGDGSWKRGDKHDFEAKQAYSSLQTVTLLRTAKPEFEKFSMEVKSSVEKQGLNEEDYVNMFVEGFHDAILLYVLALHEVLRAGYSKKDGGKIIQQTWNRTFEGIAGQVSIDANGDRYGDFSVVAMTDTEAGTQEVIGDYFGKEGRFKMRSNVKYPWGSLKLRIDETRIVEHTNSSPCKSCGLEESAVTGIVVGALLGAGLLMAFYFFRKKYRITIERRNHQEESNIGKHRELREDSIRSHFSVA

For experiment [2], the target named is T3, Natriuretic Peptide Receptor-A (NPR-A) of MDCK cells (canine (endogenous in MDCK cells)), A0A8I3.
T3 chain: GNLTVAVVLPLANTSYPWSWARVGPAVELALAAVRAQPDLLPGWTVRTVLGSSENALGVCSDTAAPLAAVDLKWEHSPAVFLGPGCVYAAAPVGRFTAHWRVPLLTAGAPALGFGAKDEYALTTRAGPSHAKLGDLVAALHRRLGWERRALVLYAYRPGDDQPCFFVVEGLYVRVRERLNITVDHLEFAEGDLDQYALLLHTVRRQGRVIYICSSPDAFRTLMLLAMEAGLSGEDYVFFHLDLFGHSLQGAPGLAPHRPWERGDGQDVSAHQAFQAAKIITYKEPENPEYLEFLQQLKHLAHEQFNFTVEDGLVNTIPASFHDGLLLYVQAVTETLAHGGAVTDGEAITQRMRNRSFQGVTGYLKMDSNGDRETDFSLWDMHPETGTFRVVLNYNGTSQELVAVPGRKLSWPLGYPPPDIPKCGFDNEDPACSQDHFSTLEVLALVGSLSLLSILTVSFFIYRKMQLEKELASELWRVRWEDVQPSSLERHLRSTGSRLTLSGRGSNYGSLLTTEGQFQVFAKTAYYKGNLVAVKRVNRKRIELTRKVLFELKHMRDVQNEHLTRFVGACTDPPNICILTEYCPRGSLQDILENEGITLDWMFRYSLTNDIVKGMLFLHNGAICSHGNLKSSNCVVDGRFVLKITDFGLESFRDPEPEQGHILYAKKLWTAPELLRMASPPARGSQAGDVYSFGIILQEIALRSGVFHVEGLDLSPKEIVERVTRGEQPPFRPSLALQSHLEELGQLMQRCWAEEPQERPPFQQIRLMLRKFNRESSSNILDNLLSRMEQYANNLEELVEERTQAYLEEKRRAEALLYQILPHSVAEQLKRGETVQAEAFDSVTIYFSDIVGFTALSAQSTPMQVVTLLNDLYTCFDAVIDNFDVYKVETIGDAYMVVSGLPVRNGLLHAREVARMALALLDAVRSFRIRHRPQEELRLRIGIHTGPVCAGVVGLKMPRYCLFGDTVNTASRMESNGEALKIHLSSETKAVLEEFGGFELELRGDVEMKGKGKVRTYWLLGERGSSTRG

The target of a further experiment is T4, rat GC-A (rat), P18910.
T4 chain: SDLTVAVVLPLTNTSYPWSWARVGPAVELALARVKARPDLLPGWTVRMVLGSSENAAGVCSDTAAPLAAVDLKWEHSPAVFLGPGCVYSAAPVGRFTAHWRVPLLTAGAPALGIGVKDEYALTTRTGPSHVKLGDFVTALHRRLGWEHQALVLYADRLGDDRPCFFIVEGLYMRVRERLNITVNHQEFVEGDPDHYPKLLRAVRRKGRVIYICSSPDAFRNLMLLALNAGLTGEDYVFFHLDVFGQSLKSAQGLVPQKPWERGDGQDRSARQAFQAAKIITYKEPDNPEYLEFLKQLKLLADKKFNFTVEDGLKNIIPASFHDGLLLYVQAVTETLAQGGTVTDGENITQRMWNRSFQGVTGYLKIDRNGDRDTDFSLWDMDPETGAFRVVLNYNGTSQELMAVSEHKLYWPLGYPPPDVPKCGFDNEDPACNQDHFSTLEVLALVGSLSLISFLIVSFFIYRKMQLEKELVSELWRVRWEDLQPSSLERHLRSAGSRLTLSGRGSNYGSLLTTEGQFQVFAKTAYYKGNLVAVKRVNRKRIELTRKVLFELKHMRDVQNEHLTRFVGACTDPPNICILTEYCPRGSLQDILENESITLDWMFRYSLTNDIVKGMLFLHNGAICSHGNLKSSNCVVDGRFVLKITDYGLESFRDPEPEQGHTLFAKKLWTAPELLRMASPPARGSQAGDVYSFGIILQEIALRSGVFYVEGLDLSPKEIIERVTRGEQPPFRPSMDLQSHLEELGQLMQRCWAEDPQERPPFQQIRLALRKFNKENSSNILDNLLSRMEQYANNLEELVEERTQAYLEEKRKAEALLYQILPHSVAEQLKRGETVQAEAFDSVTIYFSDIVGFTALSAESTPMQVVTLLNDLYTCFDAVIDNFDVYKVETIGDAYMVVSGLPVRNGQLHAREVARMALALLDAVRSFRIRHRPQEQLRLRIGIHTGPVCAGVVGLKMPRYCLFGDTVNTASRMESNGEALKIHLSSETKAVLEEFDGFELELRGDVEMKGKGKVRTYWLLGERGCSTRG

As to SDSKIGNGCFGFPLDRIGSVSGLGCNRIMQNPPKKFSGE (modifications not checked) [TNPc], in experiment [1], the EC50 of cGMP accumulation in HeLa cells is 124 mM. In addition, in the experiment with NPR-C (rat), P41740, the relaxation of KCl pre-contracted endothelium-intact rat aortic rings is 100%. In experiment [2], this molecule returned a -Log10 EC50 (pEC50) of cGMP accumulation in MDCK cells of 6.93 and an EC50 of cGMP accumulation in MDCK cells of 0.000184 mM. Also, in the experiment with rat GC-A (rat), P18910, the mean relaxation of denuded aortic rings, % of KCl response (% of KCl response) came to 55 and the relaxation of KCl pre-contracted endothelium-denuded rat aortic rings worked out at 100%.
